Measured values: US5783384, “Selection of binding-molecules” (President and Fellows of Harvard College)

Biological target: T1, GCN4 basic region peptide with 3-residue linker (monomeric) (UniProt P03069 SEQ:1-24)
T1 chain: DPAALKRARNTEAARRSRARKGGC
Experiment: EMSA; disulfide-tethered complex, reduction gel shift with 2-ME or DTT, pH 7.5 or 8.5; outcome only in figure
Conditions: protein: synthetic; tags: synthetic peptide, disulfide-tethered to DNA through linker thiol
Experimental: To test if the reduction potential of the disulfide bond corresponds to the affinity of the peptide for the adjacent DNA sequence, wild-type and mutant double-stranded DNA-peptide complexes were incubated in the presence of reducing agents 2-mercaptoethanol (2-ME) or dithiothreitol (DTT). (FIG. 4) The free (lower bands) vs. coupled DNA molecules (upper bands) were resolved on 20% nondenaturing polyacrylamide gel after. The wild-type peptide-DNA complex (wt) was consistently more resistant to reduction than the complex having mutation in either peptide (L, P) or DNA sequence (M3). Peptide-DNA complexes differ with respect to the gel mobility as well. The mutant complexes (L, P, M3) have lower gel mobility than the wild-type complex (wt), although the corresponding free (uncomplexed) DNA molecules run at the same speed.
Annealing of the oligonucleotide-peptide complex with the complementary oligonucleotide was done as described above, in the binding buffer of the same composition and desired pH (7.5 or 8.5). 2-ME or DTT was added and reactions were incubated at defined temperature in a water bath. Glycerol-running dye mixture was added (final concentration of glycerol is 5%) and reactions were loaded on 20% nondenaturing gel and run at low voltage (up to 120 V) for 16–24 hours at room temperature. (See FIG. 4).

B1: WT GCN4 half-site 39-mer (dsDNA)
DNA 1: AAGGTTAAACGTGCAAGTCATCGGTATAGGTCGAGAAGT
DNA 2: ACTTCTCGACCTATACCGATGACTTGCACGTTTAACCTT
modifications: N6-thioalkyl-dA adjacent to the half-site (disulfide tether)
binding result: binds
